T1: Utp4 (S. cerevisiae, UniProt Q06679 1-776)
T1 construct: Utp4, S. cerevisiae, subunit of UtpA; No tag is named for it in either strain; strains are in Supplementary Data 1; source: endogenous, S. cerevisiae YSK32, co-purified with Utp10-GFP; overexpressed (galactose promoter) in S. cerevisiae YSK122, co-purified with Utp15-mCherry
T1 sequence (looked up): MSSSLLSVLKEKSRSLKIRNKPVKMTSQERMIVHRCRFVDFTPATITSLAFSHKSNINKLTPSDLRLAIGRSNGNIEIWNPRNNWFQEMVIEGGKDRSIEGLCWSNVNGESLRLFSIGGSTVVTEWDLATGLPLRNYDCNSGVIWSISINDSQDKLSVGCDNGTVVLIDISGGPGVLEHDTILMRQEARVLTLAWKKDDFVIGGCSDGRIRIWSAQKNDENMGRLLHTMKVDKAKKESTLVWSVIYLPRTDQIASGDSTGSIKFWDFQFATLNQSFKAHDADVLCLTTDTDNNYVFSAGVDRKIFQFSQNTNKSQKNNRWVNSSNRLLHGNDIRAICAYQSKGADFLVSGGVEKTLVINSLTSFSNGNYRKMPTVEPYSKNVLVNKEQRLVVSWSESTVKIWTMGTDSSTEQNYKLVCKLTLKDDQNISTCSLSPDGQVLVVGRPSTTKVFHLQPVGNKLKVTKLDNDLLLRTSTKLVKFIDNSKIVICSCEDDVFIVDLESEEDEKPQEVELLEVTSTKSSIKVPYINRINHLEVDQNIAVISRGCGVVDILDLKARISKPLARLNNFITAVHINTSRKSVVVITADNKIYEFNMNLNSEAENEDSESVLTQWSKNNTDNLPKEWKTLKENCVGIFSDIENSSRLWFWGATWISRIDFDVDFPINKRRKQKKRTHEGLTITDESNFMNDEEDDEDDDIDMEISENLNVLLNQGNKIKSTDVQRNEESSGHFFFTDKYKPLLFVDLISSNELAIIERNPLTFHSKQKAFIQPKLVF


Legend:
Utp10-3C-GFP [1] = target: T2, Utp10-3C-GFP (S. cerevisiae, UniProt P42945 1-1769); test: pull-down + SEC; endogenous UtpA from YSK32 lysate captured via Utp10-GFP on anti-GFP nanobody sepharose; 50 mM HEPES-NaOH pH 7.6, 200 mM NaCl, 1 mM EDTA, 4 °C; eluted with TEV and 3C protease; Superose 6; peak fraction on Coomassie-stained SDS-PAGE; settings: partners not purified
T2 construct: Utp10, S. cerevisiae, subunit of UtpA (200 kDa); GFP is joined through a 3C protease site; it holds the protein on the beads in a1-a3 and is cleaved off by 3C on elution, so it is absent in the SEC step and in the DSS cross-linking (a6); also called Utp10-GFP; Utp10-sbp-H14-3C-GFP; source: S. cerevisiae YSK32, C-terminal tag integrated in the genome, endogenous level; captured from lysate on …

Utp10-3C-GFP [2] = target: T2, Utp10-3C-GFP; test: cross-linking; DSS (0.2 mM, H12/D12) cross-linking of SEC-purified endogenous UtpA, 25 °C, 30 min, 50 mM HEPES-NaOH pH 7.6, 200 mM NaCl, 1 mM EDTA; cross-linked peptides found by mass spectrometry (pLink); settings: both partners purified
Utp4 = target: T1, Utp4; test: as above; settings: both partners purified

T2 sequence (P42945 whole entry): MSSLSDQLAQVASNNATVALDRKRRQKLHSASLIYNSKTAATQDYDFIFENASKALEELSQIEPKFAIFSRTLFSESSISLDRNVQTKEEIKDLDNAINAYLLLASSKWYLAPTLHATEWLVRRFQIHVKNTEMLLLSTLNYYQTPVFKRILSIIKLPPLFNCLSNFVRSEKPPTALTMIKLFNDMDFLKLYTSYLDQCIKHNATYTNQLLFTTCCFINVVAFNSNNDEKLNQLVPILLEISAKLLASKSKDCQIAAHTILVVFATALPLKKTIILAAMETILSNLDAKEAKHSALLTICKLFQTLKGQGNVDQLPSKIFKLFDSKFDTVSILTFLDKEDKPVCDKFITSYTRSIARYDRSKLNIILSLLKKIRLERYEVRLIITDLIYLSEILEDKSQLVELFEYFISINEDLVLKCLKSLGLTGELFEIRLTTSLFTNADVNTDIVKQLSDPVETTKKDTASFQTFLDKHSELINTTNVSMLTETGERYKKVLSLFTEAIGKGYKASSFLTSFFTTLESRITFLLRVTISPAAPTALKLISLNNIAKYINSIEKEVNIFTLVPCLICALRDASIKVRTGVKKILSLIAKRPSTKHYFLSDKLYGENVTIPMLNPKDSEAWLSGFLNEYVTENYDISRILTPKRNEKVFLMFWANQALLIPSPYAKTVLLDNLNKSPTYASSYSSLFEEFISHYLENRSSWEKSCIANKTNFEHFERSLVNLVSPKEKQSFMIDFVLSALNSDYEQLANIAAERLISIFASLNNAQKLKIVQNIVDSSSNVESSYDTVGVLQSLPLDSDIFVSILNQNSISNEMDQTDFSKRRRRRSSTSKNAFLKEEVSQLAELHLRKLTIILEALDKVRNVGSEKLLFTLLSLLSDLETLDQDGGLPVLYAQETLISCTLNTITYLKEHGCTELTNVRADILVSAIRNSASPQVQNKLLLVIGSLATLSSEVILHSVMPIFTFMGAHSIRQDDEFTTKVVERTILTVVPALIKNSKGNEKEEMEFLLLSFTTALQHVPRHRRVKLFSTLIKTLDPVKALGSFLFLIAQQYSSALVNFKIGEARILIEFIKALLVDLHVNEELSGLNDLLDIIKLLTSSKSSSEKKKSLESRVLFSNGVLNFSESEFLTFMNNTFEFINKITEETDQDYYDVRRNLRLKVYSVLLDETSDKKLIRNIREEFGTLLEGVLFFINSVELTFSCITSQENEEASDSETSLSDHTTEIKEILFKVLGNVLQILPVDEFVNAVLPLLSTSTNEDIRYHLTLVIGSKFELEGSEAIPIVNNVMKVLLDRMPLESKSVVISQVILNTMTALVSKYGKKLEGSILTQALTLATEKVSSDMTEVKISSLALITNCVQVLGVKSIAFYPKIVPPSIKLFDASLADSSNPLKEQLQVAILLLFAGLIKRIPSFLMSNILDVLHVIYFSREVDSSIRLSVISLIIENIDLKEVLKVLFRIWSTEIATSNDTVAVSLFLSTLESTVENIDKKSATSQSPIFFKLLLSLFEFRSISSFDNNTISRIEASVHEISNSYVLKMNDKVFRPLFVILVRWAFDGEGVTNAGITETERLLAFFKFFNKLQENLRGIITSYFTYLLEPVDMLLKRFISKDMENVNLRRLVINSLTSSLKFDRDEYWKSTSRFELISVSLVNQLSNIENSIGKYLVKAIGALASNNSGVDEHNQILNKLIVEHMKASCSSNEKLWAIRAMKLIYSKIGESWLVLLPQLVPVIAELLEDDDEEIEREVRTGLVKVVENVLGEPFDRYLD

| Binder | binding result (Utp10-3C-GFP [1]) | binding result (Utp10-3C-GFP [2]) | binding result (Utp4) |
| --- | --- | --- | --- |
| Utp5 (natural protein, S. cerevisiae, UniProt Q04177 1-643, looked up, Utp5, S. cerevisiae, subunit of UtpA; No tag is named for it in either strain; strains are in Supplementary Data 1; source: endogenous, S. cerevisiae YSK32, co-purified with Utp10-GFP; overexpressed (galactose promoter) in S. cerevisiae YSK122, co-purified with Utp15-mCherry) MDSPVLQSAYDPSGQYLCYVTVALDKQRVGVQPTQRATSSGVDTVWNENFLYLEDSKLKVTCLKWVNLASSDTVAIILGMNNGEIWLYSVLANEVTYKFTTGNSYEIKDIDLMGNQLWCIDSSDAFYQFDLLQFKLLQHFRINNCVQLNKLTIVPAGDSVAQLLVASHSISLIDIEEKKVVMTFPGHVSPVSTLQVITNEFFISGAEGDRFLNVYDIHSGMTKCVLVAESDIKELSHSGQADSIAVTTEDGSLEIFVDPLVSSSTKKRGNKSKKSSKKIQIVSKDGRKVPIYNAFINKDLLNVSWLQNATMPYFKNLQWREIPNEYTVEISLNWNNKNKSADRDLHGKDLASATNYVEGNARVTSGDNFKHVDDAIKSWERELTSLEQEQAKPPQANELLTETFGDKLESSTVARISGKKTNLKGSNLKTATTTGTVTVILSQALQSNDHSLLETVLNNRDERVIRDTIFRLKPALAVILLERLAERIARQTHRQGPLNVWVKWCLIIHGGYLVSIPNLMSTLSSLHSTLKRRSDLLPRLLALDARLDCTINKFKTLNYEAGDIHSSEPVVEEDEDDVEYNEELDDAGLIEDGEESYGSEEEEEGDSDNEEEQKHTSSKQDGRLETEQSDGEEEAGYSDVEME | binds |  |  |
| Utp8 (natural protein, S. cerevisiae, UniProt P53276 1-713, looked up, Utp8, S. cerevisiae, subunit of UtpA; No tag is named for it in either strain; strains are in Supplementary Data 1; source: endogenous, S. cerevisiae YSK32, co-purified with Utp10-GFP; overexpressed (galactose promoter) in S. cerevisiae YSK122, co-purified with Utp15-mCherry) MPSLSQPFRLATLPKIASLSNFSLQADYVQVADGTFNESTNNITLGISGSSISQYIINPTPKLTFDYPIPSTNIITACNAEKGQANIDGNIEASTDDEANNEKTINTQKKRNVEIWAFGLMVNKGNYTLNVITKALEDTTDTSNDHLSESDIDNKAYTGSDEFLSQYKIKAKAKVMSIKIDTKNSLVIAILQNGLIEIFDFKLTLLHSFDISYDNLKYAKWFTENGTEYVFVLCPLQDDKVCYKLLELTDCGSGESSPIKELSSTIIEGFSFENSKLCYQFGKLYKLNQGKIYIYSLPHCQLQQVIEFPMVDKLSPGDDLISFQPVSVNRVLLTVNNVIYLLDLLHCSTLSQRELTHVKTFQLLKSAVINSEKSHNSKTIAIGISTKNGPNPTSSLEIINIDVGTNTLKDSLGKSFQVGNNDSSVILKPLFDDKDINDKRVKCNDVSGDSSVPVLHCNEVIEKLSALQDNDITSFDDIFFKELKIKEEHYTEKDRYISDPGFLNKVLDLIFGKFSGNDYPKTLTFLLTHPLFPLSRTRNLLSLLRDQPRLFKQAIVTCPNLPLNELLEELFSIRNRELLLDISFRILQDFTRDSIKQEMKKLSKLDVQNFIEFITSGGEDSSPECFNPSQSTQLFQLLSLVLDSIGLFSLEGALLENLTLYIDKQVEIAERNTELWNLIDTKGFQHGFASSTFDNGTSQKRALPTYTMEYLDI |  | binds | binds |

Source: PMC4931317, “UtpA and UtpB chaperone nascent pre-ribosomal RNA and U3 snoRNA to initiate eukaryotic ribosome assembly” (Nature Communications, 2016)
